Assays:
Type in all cases: cell-based, human
hESCs [1] = assay: AFP antibody-labeled cell number by flow cytometry; details: presence vs absence of activin A; FIGS. 9A-B
Source text: As a further evidence of the specificity of the SOX17^hi/AFP^lo/TM^lo/SPARC^lo marker profile as predictive of definitive endoderm, SOX17 and AFP gene expression was quantitatively compared to the relative number of antibody labeled cells.

hESCs [2] = assay: Immunocytochemistry: SOX17, AFP and TM antibody labeling of differentiating hESCs
Source text: As described in detail herein, the SOX17 antibody was utilized to specifically examine effects of various treatments and differentiation procedures aimed at the production of SOX17 positive definitive endoderm cells. Other antibodies reactive to AFP, SPARC and Thrombomodulin were also employed to rule out the production of visceral and parietal endoderm (extra-embryonic endoderm).
As evidence that the SOX17 antibody is specific for human SOX17 protein and furthermore marks definitive endoderm, partially differentiated hESCs were co-labeled with SOX17 and AFP antibodies. […] However, AFP and SOX7 are not expressed in definitive endoderm cells at levels detectable by ICC, and thus, they be can employed as negative markers for bonifide definitive endoderm cells. It was shown that SOX17 antibody labels populations of cells that exist as discrete groupings of cells or are intermingled with AFP positive cells. […] Similarly, since parietal endoderm has also been reported to express SOX17, antibody co-labeling with SOX17 together with the parietal markers SPARC and/or Thrombomodulin (TM) can be used to identify the SOX17^+ cells which are parietal endoderm. As shown in FIGS. 6A-C, Thrombomodulin and SOX17 co-labelled parietal endoderm cells were produced by random differentiation of hES cells.
With the SOX17 antibody and Q-PCR tools described above we have explored a number of procedures capable of efficiently programming ESCs to become SOX17^hi/AFP^lo/SPARC/TM^lo definitive endoderm cells. We applied a variety of differentiation protocols aimed at increasing the number and proliferative capacity of these cells as measured at the population level by Q-PCR for SOX17 gene expression and at the level of individual cells by antibody labeling of SOX17 protein.
To determine the effect of TGFβ factor treatment at the individual cell level, a time course of TGFβ factor addition was examined using SOX17 antibody labeling. As previously shown in FIGS. 10A-F, there was a dramatic increase in the relative number of SOX17 labeled cells over time.
In these experiments, hESCs were differentiated by growing in RPMI medium (Invitrogen, Carlsbad, Calif.; cat#61870-036) supplemented with 0.5%, 2.0% or 10% FBS and either with or without 100 ng/mL activin A for 6 days. In addition, a gradient of FBS ranging from 0.5% to 2.0% over the first three days of differentiation was also used in conjunction with 100 ng/mL of activin A. After the 6 days, replicate samples were collected from each culture condition and analyzed for relative gene expression by real-time quantitative PCR. The remaining cells were fixed for immunofluorescent detection of SOX17 protein.

hESCs [3] = assay: Validation of definitive endoderm markers by Q-PCR (Example 12); details: 100 ng/ml activin A vs no exogenous activin A; Example 12 written in present tense
Procedure: Using the methods, such as those described in the above Examples, hESCs are differentiated to produce definitive endoderm. In particular, to increase the yield and purity of definitive endoderm in differentiating cell cultures, the serum concentration of the medium is controlled as follows: 0% FBS on day 1, 0.2% FBS on day 2 and 2.0% FBS on days 3-6. Differentiating cell populations are grown in the presence of 100 ng/ml activin A, whereas non-differentiating control populations are grown in the absence of activin A. Human embryonic cell cultures grown in the presence or absence of activin A and in either 2% serum or 10% serum over the entire 6 day differentiation period are also monitored. Daily samples of each culture are withdrawn and the amount of mRNA transcript produced for each of the markers AGPAT3, APOA2, C20orf56, C21orf129, CALCR, CCL2, CER1, CMKOR1, CRIP1, CXCR4, CXorf1, DIO3, DIO3OS, EB-1, EHHADH, ELOVL2, EPSTI1, FGF17, FLJ10970, FLJ21195, FLJ22471, FLJ23514, FOXA2, FOXQ1, GATA4, GPR37, GSC, LOC283537, MYL7, NPPB, NTN4, PRSS2, RTN4RL1, SEMA3E, SIAT8D, SLC5A9, SLC40A1, SOX17, SPOCK3, TMOD1, TRPA1, TTN, AW166727, AI821586, BF941609, AI916532, BC034407, N63706 and AW772192 is measured by Q-PCR.

hESCs [4] = assay: CXCR4+ cell number by flow cytometry (FACS); details: 0, 10 or 100 ng/mL; 7 days; 0.5%-2% FBS; FIGS. 30A-C
Procedure: hESCs were differentiated in RPMI media supplemented with 0.5%-2% FBS (increased from 0.5% to 1.0% to 2.0% over the first 3 days of differentiation) and either 0, 10, or 100 ng/mL of activin A. After 7 days of differentiation the cells were dissociated in PBS without Ca^2+/Mg^2+ containing 2% FBS and 2 mM (EDTA) for 5 minutes at room temperature. The cells were filtered through 35 um nylon filters, counted and pelleted. Pellets were resuspended in a small volume of 50% human serum/50% normal donkey serum and incubated for 2 minutes on ice to block non-specific antibody binding sites. To this, 1 uL of mouse anti-CXCR4 antibody (Abeam, cat# ab10403-100) was added per 50 uL (containing approximately 10^5 cells) and labeling proceeded for 45 minutes on ice. Cells were washed by adding 5 mL of PBS containing 2% human serum (buffer) and pelleted. A second wash with 5 mL of buffer was completed then cells were resuspended in 50 uL buffer per 10^5 cells. […] Cells were resuspended at 5×10^6 cells/mL in buffer and analyzed and sorted using a FACS Vantage (Beckton Dickenson) by the staff at the flow cytometry core facility (The Scripps Research Institute). Cells were collected directly into RLT lysis buffer (Qiagen) for subsequent isolation of total RNA for gene expression analysis by real-time quantitative PCR.

B1: Activin A: growth factor of the TGFβ superfamily, Nodal/Activin subgroup; definitive endoderm inducer (protein, UniProt P08476 311-426, looked up)
Inhibin beta A chain: GLECDGKVNICCKKQFFVSFKDIGWNDWIIAPSGYHANYCEGECPSHIAGTSGSSLSFHSTVINHYRMRGHSPFANLKSCCVPTKLRPMSMLYYDDGQNIIKKDIQNMIVEECGCS
B1 was tested. Which “decrease in AFP antibody-labeled cell number” value (hESCs [1]) did it give?
Its value is “approximately 7 fold”.

And the “difference in SOX17 antibody-labeled cell number, Activin A vs retinoic acid treated hESCs” value (hESCs [2]; FIG. 7B)?
The value was 10 fold.

What about the “SOX17+ cell number, dose response” value (hESCs [2]; FIG. 22) of the same molecule?
Its value is “dose-dependent increase”.

And the “frequency of SOX17+ cells” value (hESCs [2]; high dose activin A, FBS at 10% (v/v), 6 days)?
The value was “much lower frequency”.

And the “distribution of SOX17+ cells in the culture” value (hESCs [2]; high dose activin A, low FBS concentration (0.5%-2.0%), 6 days)?
Its value is “ubiquitously distributed”.

What about the “expression levels of the Table 4 markers (AGPAT3 ... AW772192)” value (hESCs [3]) of the same molecule?
Its value is “high”.

What about the “number of CXCR4+ cells as dose is increased” value (hESCs [4]) of the same molecule?
Its value is “increase dramatically”.

Source: patent US8586357B2, “Markers of definitive endoderm” (ViaCyte, Inc., priority 2003, dated 2013)
